Tests used:
rhesus monkey IL-12 = target: T1, rhesus monkey IL-12 (rhesus monkey, UniProt P48091 23-219; P48095 23-328); assay: binding or inhibition ELISA (which of the two is not said)
T1 sequence (looked up) 1: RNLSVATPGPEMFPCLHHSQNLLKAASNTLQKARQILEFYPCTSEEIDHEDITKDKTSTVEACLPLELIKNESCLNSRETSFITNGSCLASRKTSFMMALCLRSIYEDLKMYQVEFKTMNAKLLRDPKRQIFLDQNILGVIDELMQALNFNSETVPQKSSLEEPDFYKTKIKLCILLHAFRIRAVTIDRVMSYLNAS
T1 sequence (looked up) 2: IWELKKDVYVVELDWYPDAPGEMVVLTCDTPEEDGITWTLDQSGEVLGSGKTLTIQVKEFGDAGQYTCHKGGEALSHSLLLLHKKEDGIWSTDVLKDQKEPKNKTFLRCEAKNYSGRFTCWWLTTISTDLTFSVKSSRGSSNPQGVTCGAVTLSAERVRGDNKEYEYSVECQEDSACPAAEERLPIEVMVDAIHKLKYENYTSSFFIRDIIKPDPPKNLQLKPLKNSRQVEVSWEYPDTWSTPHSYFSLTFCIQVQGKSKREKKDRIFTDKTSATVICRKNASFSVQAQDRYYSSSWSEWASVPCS

Human IL-12 = target: T2, Human IL-12 (human, UniProt P29459 23-219; P29460 23-328); assay: as above
T2 sequence (looked up) 1: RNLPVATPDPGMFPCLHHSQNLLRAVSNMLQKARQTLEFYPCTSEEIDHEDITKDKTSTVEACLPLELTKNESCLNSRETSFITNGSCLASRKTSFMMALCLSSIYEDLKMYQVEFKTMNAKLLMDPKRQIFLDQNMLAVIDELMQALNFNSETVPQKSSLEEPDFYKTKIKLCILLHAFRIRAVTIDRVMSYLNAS
T2 sequence (looked up) 2: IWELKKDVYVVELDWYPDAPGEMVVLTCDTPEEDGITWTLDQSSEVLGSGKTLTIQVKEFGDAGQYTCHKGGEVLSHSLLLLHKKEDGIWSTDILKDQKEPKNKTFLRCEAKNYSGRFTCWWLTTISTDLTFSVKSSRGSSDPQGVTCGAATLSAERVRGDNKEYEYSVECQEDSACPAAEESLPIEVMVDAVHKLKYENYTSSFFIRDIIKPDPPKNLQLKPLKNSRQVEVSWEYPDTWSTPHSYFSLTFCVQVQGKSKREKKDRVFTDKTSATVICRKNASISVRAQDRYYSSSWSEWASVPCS

IL-6 = IL-6 (Homo sapiens (Human), UniProt P05231 30-212); assay: as above
recombinant human IL-23 [1] = target: T3, recombinant human IL-23 (human, UniProt Q9NPF7 20-189; P29460 23-328); assay: IL-23-IL-23R neutralisation ELISA
T3 construct: Heterodimer of p19 and p40; also called hIL-23; interleukin-23; not shown: single C-terminal 6xHis tag
T3 sequence 1: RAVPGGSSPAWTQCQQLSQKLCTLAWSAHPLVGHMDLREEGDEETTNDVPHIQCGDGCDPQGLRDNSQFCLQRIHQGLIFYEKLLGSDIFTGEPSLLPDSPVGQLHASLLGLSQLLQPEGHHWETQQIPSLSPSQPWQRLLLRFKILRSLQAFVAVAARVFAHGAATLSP
T3 sequence 2: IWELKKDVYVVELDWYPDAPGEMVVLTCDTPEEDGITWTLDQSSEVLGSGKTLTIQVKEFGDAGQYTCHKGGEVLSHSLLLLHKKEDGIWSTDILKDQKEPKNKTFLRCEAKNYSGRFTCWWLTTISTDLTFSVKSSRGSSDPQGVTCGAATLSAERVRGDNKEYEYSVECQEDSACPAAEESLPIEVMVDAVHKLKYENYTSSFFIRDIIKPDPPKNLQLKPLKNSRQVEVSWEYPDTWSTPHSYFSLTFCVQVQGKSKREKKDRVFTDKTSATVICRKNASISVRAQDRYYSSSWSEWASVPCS
Procedure: (§1) Maxisorp 96-well plates were coated overnight with 50 μl/well 0.3 μg/ml IL-23R-Fc then blocked with 4% milk, 1% BSA.
The Family L ICVD 12G1 underwent sequence modification to produce multiple variant ICVDs. These variant ICVDs were tested in the potency and protease stability assays detailed above.

recombinant human IL-23 [2] = target: T3, recombinant human IL-23; assay: IL-23-IL-23R inhibition ELISA (Evaluation Method A), side by side with brazikumab
Procedure: as §1

recombinant human IL-23 [3] = target: T3, recombinant human IL-23; assay: SPR (Biacore), recombinant human IL-23 captured by an anti-p40 mAb on the chip, ICVD flowed over; average KD
THP-1 derived nhIL-23 = target: T4, THP-1 derived nhIL-23 (human, UniProt Q9NPF7 20-189; P29460 23-328); assay: cell-based or functional assay
T4 sequence (looked up) 1: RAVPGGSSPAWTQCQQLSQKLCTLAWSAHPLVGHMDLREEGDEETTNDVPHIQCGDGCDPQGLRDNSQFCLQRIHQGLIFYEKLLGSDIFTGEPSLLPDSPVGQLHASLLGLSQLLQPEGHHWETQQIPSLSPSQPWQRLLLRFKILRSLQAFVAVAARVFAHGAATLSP
T4 sequence (looked up) 2: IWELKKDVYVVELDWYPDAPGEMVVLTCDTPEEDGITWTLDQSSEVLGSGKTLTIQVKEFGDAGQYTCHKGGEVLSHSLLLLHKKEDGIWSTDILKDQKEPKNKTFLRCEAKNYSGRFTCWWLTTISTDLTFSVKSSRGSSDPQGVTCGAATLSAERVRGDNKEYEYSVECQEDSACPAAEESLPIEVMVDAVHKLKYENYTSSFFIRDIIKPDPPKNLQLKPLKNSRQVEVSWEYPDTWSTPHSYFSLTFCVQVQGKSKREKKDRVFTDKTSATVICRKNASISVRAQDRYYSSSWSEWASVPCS

Sequence of IL-6 (P05231 30-212 limits assumed): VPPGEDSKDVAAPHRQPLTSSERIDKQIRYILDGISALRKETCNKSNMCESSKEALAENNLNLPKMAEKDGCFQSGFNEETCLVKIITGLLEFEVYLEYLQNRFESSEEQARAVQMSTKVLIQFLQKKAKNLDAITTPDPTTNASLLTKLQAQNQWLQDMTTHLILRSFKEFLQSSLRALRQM

B1: ID-L253T (VHH)
VHH: DVQLVESGGGQVQPGGSLSLSCESSVSIWSFKVMGWFRQVPGKQRELVATITTGGSPDYSDSVKGRFTISRDYDKRTLYLQMNSLKPEDTAVYYCAGRLWAHITSSGHDVWGQGTQVTVSS
notes: Optimised variant of 12G1
Rhesus monkey IL-12
  binding result: no binding
Human IL-12
  binding result: no binding
IL-6
  binding result: no binding
Recombinant human IL-23 [1]
  EC50: 230 pM
Recombinant human IL-23 [2]
  EC50: 202 pM
Recombinant human IL-23 [3]
  Kd: 32 pM
THP-1 derived nhIL-23
  Mouse splenocyte (EC50; mIL-17 secretion, Evaluation Method C): 13500 pM
